Measured values reported in patent US20210284749A1 (ABL BIO, published 2021).
Substitutions are numbered along the chain they refer to. Values joined by “and” are separate entries in the source; they are usually repeats but may differ in a detail not shown here. Equal entries are not always repeated.

T1: human BCMA expressed on cell surface (H929, OPM-2, CHOK1-hBCMA cells) (human, UniProt Q02223 1-184)
T1 construct: also called cell-surface BCMA; BCMA on cell surface
T1 sequence: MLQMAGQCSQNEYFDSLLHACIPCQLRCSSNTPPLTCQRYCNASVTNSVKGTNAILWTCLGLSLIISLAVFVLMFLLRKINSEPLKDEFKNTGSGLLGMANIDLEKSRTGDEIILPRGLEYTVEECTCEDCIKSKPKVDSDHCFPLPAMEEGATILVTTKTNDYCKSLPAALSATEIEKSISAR

T2: recombinant human BCMA (ELISA antigen, construct not specified) (human, UniProt Q02223 1-54)
T2 construct: Fc 1-51; Fc/His 1-51; Fc 4-48) was coated in these ELISAs; also called recombinant BCMA; recombinant protein
T2 sequence: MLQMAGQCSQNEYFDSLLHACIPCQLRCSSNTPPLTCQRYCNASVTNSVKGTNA

T3: mouse BCMA (1-49) fused to the Fc region of human IgG1 (mouse; human, UniProt O88472 1-49)
T3 construct: Sino Biological Inc. 50076-M01H; also called 50076-M01H; not shown: Fc region of human IgG1
T3 chain: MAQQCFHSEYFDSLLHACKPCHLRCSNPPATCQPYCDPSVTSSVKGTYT

T4: rat BCMA (1-49) fused to the Fc region of human IgG1 (rat; human)
T4 construct: Sino Biological Inc. 80156-R01H; also called 80156-R01H; not shown: Fc region of human IgG1
T4 chain: T3 chain with Q4R, H22R, T31P, V40M, K45R

B1: anti-BCMA IgG antibody 5A6 (antibody, V domains shown)
VH: EVQLLESGGGLVQPGGSLRLSCAASGFTFSNYGVHWVRQAPGKGLEWVSYISYSGGTYYNPSLKSRFTISRDNSKNTLYLQMNSLRAEDTAVYYCARDSDDFGFDYWGQGTLVTVSS
VL: QSVLTQPPSASGTPGQRVTISCQGDSLRSYYVNWYQQLPGTAPKLLIYDHSKRPTGVPDRFSGSKSGTSASLAISGLRSEDEADYYCQSYDSSTVVFGGGTKLTVLG
notes: also called 5A6 WT; 5A6 antibody
B2: anti-BCMA IgG antibody 5D5 (antibody, V domains shown)
VH: EVQLLESGGGLVQPGGSLRLSCAASGFTFSDYGLSWVRQAPGKGLEWVSLIDSSGSSTFYADSVKGRFTISRDNSKNTLYLQMNSLRAEDTAVYYCAKEHGLFDSWGQGTLVTVSS
VL: EIVLTQSPGTLSLSPGERATLSCKASQDIDDDINWYQQKPGQAPRLLIYDASLRATGIPDRFSGSGSGTDFTLTISRLEPEDFAVYYCQQSLRTPITFGQGTKLEIKR
notes: also called 5D5 WT; 5D5 antibody

What was measured:
[1] = target: T1, human BCMA expressed on cell surface …; test: FACS on H929 cells
[2] = target: T2, recombinant human BCMA (ELISA antigen, …); test: ELISA on recombinant BCMA
[3] = target: T2, recombinant human BCMA (ELISA antigen, …); test: ELISA, 100 ng coated antigen
Experimental: (§1) 100 ng of human, monkey, mouse, and rat BCMA antigens prepared in Example 1.1 were coated on the bottom of the plate, and then coated with 3% BSA to block nonspecific binding. Using the selected anti-BCMA IgG antibodies as primary antibodies, and the anti-human Fab HRP (1:20000 dilution) as a secondary antibody, ELISA assay was performed as described in Example 1.3.
(§2) Absorbancies at 450 nm measured with a microplate reader are shown in FIG. 3, and half maximal effective concentrations (EC₅₀) (nM) are shown in Table 9.

[4] = target: T5, monkey (Rhesus) BCMA (1-53) fused to the Fc region of human IgG1 (monkey (Rhesus); human, UniProt Q02223 1-54); test: ELISA, 100 ng coated antigen
T5 construct: Sino Biological Inc. 90103-C02H; also called monkey BCMA; Monkey BCMA (1-53); not shown: Fc region of human IgG1
Experimental: as §1, §2

[5] = target: T2, recombinant human BCMA (ELISA antigen, …); test: ELISA on 100 ng coated human BCMA, antibody titrated, anti-human Fab HRP, absorbance 450 nm
Experimental: as §1, §2

[6] = target: T2, recombinant human BCMA (ELISA antigen, …); test: ELISA on coated recombinant human BCMA, antibody titrated, HRP anti-Fab detection, absorbance 450 nm
Experimental: Specific binding abilities of the anti-BCMA IgG antibodies isolated in Example 1.4 to recombinant BCMA protein were analyzed by ELISA.
Using recombinant human BCMA or monkey BCMA as an antigen, and HRP-conjugated Fab polychronal antibody reagent (Pierce, 31414) as a secondary antibody, ELISA was performed as described in Example 1.3.

[7] = target: T1, human BCMA expressed on cell surface …; test: FACS on H929 cells, 10 µg/ml antibody, anti-human Fc-FITC; open histogram shifted right of the filled control
Experimental: (§3) Multiple myeloma cancer cells H929 (ATCC, CRL9068™) and OPM-2 cell line (DSMZ, ACC 50), which are known to express BCMA, were prepared, and human BCMA-overexpressed CHOK1-hBCMA cell line (constructed by ABIBio) were prepared.
(§4) 10 μg/ml of the seven IgG antibodies (B58, 5A6, 5D5, 5B5, 1H, 2G, and 5G) purified in Example 1.4 was added to the prepared cells, incubated at 4° C. for 1 hour, and then washed two times with a PBS buffer solution. The anti-human Fc-FITC was diluted in 1:400, incubated at 4° C. for 1 hour, and then washed with a PBS buffer solution. These processes were repeated. In FIGS. 2A and 2B, MFI indicates mean fluorescence intensity.

[8] = target: T1, human BCMA expressed on cell surface …; test: FACS on OPM-2 cells, 10 µg/ml antibody, anti-human Fc-FITC; open histogram shifted right of the filled control
Experimental: as §3, §4

[9] = target: T3, mouse BCMA (1-49) fused to the Fc …; test: ELISA, 100 ng coated antigen
Experimental: as §1, §2

[10] = target: T4, rat BCMA (1-49) fused to the Fc region …; test: ELISA, 100 ng coated antigen
Experimental: as §1, §2

Binder	MFI [1]	EC50 [2]	EC50 [3] [nM]	EC50 [4] [nM]	EC50 (read off the curve) [5] [µg/mL]	EC50 (read off the curve) [6] [µg/mL]	MFI [7]	MFI [8]	EC50 [9] [nM]	EC50 [10] [nM]
B1	68.2	0.0631 nM and 0.0643 nM and 0.077 nM	100	153	~0.02	~0.1	100	54.7		
B2	36.4	0.0708 nM and 0.0652 nM	140	94	~0.01	~0.1	29.9	21.8	150	98
